# Measured values reported in publication PMC4859152 (The Biochemical journal, 2015).
# Changes are numbered by the printed parent chain.
# B1: WT Prx2, oxidized (disulfide) (enzyme, human, UniProt P32119 1-198, looked up)
# chain: MASGNARIGKPAPDFKATAVVDGAFKEVKLSDYKGKYVVLFFYPLDFTFVCPTEIIAFSNRAEDFRKLGCEVLGVSVDSQFTHLAWINTPRKEGGLGPLNIPLLADVTRRLSEDYGVLKTDEGIAYRGLFIIDGKGVLRQITVNDLPVGRSVDEALRLVQAFQYTDEHGEVCPAGWKPGSDTIKPNVDDSKEYFSKHN
# modifications: intermolecular disulfides between Cys-Sp and Cys-Sr of the opposing subunit (two per dimer)
# B2: CT* Prx2, oxidized (as purified) (enzyme, human, UniProt P32119 1-198, looked up)
# chain: B1 chain with G175N, K177T, G179D, D181P
# modifications: oxidized form (inter-subunit disulfides)
# B3: WT Prx3, hyperoxidized dimer (enzyme, human, UniProt P30048 62-256, looked up)
# chain: APAVTQHAPYFKGTAVVNGEFKDLSLDDFKGKYLVLFFYPLDFTFVCPTEIVAFSDKANEFHDVNCEVVAVSVDSHFSHLAWINTPRKNGGLGHMNIALLSDLTKQISRDYGVLLEGSGLALRGLFIIDPNGVIKHLSVNDLPVGRSVEETLRLVKAFQYVETHGEVCPANWTPDSPTIKPSPAASKEYFQKVNQ
# modifications: per dimer: one Cys-Sp as sulfinic acid (SpO2-), the other active site a Cys-Sp to Cys-Sr disulfide
# B4: WT Prx3, oxidized (disulfide) (enzyme, human, UniProt P30048 62-256, looked up)
# chain: B3 chain
# modifications: intermolecular disulfides between Cys-Sp and Cys-Sr of the opposing subunit (two per dimer)
# B5: CT* Prx3, oxidized (as purified) (enzyme, human, UniProt P30048 62-256, looked up)
# chain: B3 chain with N171G, T173K, D175G, P177D
# modifications: oxidized form (inter-subunit disulfides)
# B6: WT Prx3, reduced (enzyme, human, UniProt P30048 62-256, looked up)
# chain: B3 chain
# Experiments:
# [1] = target: the molecule itself; test: SEC
# [2] = target: the molecule itself; test: non-reducing SDS/PAGE
# [3] = target: the molecule itself; test: SEC; remark: listed apart in the source
Protein,stoichiometry N [1],stoichiometry N [2],stoichiometry N [3]
B1,10,2,
B2,,2,
B3,2,,
B4,,2,
B5,,2,
B6,,,2
